Laboratory results taken from article doi:10.1101/2020.01.21.914390 (bioRxiv, 2020).

Target: GST tagged MYB52 fusion protein (Arabidopsis thaliana, UniProt Q6R0C4 1-249)
Assay: pull-down

GST tagged MYB52 fusion protein, sequence (Q6R0C4 whole entry, the tested form may be a part): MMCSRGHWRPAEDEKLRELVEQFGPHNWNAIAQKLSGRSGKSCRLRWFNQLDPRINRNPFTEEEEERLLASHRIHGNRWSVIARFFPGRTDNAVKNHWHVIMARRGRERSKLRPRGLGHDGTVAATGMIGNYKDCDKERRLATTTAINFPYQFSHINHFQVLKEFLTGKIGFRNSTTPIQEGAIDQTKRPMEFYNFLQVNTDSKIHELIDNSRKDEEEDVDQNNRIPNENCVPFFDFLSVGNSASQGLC

- binding result: binds
B1: MBP tagged ERF4 fusion protein (ETHYLENE RESPONSIVE FACTOR4) (natural protein)
chain: not shown
